The target of one assay is T1, MPV-F (Example 7) (human metapneumovirus, UniProt Q6WB98 19-489).
T1 construct: also called hMPV F monomer
In words: ELISA on supernatant of cells transiently transfected with the MPV-F construct; antibody titrated; OD450.

A further assay has as its target T2, N210A.
T2 construct: also called MPV-F N210A
Described as above.

A further assay addresses T3, R253A.
T3 construct: also called MPV-F R253A
The assay is described as above.

Another assay addresses T4, R198A.
T4 construct: also called MPV-F R198A
The description is as above.

Another assay deals with T5, N202A.
T5 construct: also called MPV-F N202A
The description is as above.

A further assay concerns the target T6, A216Y.
T6 construct: also called MPV-F A216Y
The assay is described as above.

The next assay concerns the target T7, R329A.
T7 construct: also called MPV-F R329A
Described as above.

In a further assay the target is T8, D209Y.
T8 construct: also called MPV-F D209Y
Described as above.

The target of another assay is T9, A249Y.
T9 construct: also called MPV-F A249Y
Described as above.

The target in another assay is T10, L219Y.
T10 construct: also called MPV-F L219Y
Described as above.

The target of the next assay is T11, Q434H.
T11 construct: also called unprocessed hMPV PreF Q434H
In words: ELISA; Ni-NTA plate coated with Expi293 supernatant containing the His-tagged antigen; antibody titrated; OD450.

For a further assay, the target named is T12, V231A.
T12 construct: also called unprocessed hMPV PreF V231A
Described as above.

Assay [1] addresses unprocessed hMPV PreF G264R (human metapneumovirus strain B2). The assay is described as above.
Assay [2] concerns the target unprocessed hMPV PreF V231A/G264R (human metapneumovirus strain B2). The assay is described as above.
In assay [3] the target is unprocessed hMPV PreF G264R/Q434H (human metapneumovirus strain B2). The description is as above.
Assay [4] has as its target unprocessed hMPV PreF K138Q (human metapneumovirus strain B2). Described as above.
For assay [5], the target named is T13, unprocessed hMPV PreF trimeric antigen (human metapneumovirus strain B2).
T13 construct: also called unprocessed hMPV WT PreF trimer; hMPV WT trimer
The assay is described as above.

Assay [6] concerns the target F protein of hMPV B virus (human metapneumovirus subtype B). Briefly: cell-based or functional assay.
Assay [7] deals with F protein of hMPV A virus (human metapneumovirus subtype A). In words: cell-based or functional assay.
For assay [8], the target named is F protein of RSV B/Washington virus (respiratory syncytial virus B, …). Briefly: cell-based or functional assay.

B1: M2D2 (antibody, V domains shown)
VH: QVQLVQSGAEVKKPGASVKVSCKASGYNFDNYYMSWVRQAPGQGLEWLGIIDPSGGRISYAPKFQGRVTLTRDTSTSTVYMELRGLRFEDTALYYCARLEATHEGPWGQGTLVTVSS
VL: QSVLTQPPSASGTPGQRVTISCSGSNSNIGSSTVNWYQQLPGTAPKLLIYSDNHRPSGVPDRFSGSRSGTSASLVISGLHSEDEADYYCGTWDDGLNGPYVFGTGTKVTVL
notes: IgG
Turning to B1, the 50% effective concentration (EC50 (read off the curve)) in the assay with MPV-F (Example 7) was about 0.02 µg/mL; in the assay with N210A it was about 0.02 µg/mL; in the assay with R253A, about 0.04 µg/mL; with R198A, about 0.02 µg/mL; with N202A, about 0.03 µg/mL; with A216Y, about 0.04 µg/mL. For the same molecule, the concentration for a half-maximal effect (EC50 (read off the curve)) with R329A is about 0.03 µg/mL; with D209Y, about 0.04 µg/mL; with A249Y it was about 0.05 µg/mL; in the assay with L219Y, about 0.05 µg/mL; with Q434H, about 0.01 µg/mL; with V231A, about 0.006 µg/mL. Moreover, the 50% effective concentration (EC50 (read off the curve)) in [4] is about 0.006 µg/mL; in assay [5], about 0.004 µg/mL. The binding result in assay [1], in assay [2] and in assay [3] was “binds” throughout. Further, the “PRNT IC50” value in assay [6] is 0.0584 µg/mL; in [7], 0.0296 µg/mL; in assay [8], 0.0039 µg/mL.

(Values after US20240327502A1 (Merck Sharp & Dohme, published 2024).)
